*1 amine or outer side, *2 acyl side, *3 side chain or, on linkers, in order; H or OH if unused. Where no end group is shown, it is not given here. Side-chain parts run from the residue outwards. [ ]: non-standard residue; d: D form. The star is where a group is joined. C18 diacid = O=C(O)CCCCCCCCCCCCCCCCC(=O)*; γGlu = O=C(O)[C@H](CCC(=O)[*:2])N[*:1]; Palmitoyl = CCCCCCCCCCCCCCCC(=O)*; Decanoyl = CCCCCCCCCC(=O)*; AEEA = NCCOCCOCC(=O)O; Aib = CC(C)(N)C(=O)O
T1: human GIPR (glucose-dependent insulinotropic polypeptide receptor) (human, UniProt P48546 22-466)
T1 sequence (looked up): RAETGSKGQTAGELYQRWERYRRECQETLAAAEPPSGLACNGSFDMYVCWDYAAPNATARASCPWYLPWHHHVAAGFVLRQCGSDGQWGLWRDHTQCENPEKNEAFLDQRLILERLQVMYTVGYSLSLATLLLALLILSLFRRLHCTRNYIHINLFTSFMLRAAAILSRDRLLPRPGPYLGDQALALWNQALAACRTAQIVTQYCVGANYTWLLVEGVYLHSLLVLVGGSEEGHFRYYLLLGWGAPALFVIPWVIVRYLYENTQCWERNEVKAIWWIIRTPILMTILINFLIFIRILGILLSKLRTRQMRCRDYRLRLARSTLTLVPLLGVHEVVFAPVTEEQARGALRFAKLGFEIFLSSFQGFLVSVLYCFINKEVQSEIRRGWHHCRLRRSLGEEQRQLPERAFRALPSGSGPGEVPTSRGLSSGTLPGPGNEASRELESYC

T2: human GLP-2R (glucagon-like peptide-2 receptor) (human, UniProt O95838 1-553)
T2 sequence (looked up): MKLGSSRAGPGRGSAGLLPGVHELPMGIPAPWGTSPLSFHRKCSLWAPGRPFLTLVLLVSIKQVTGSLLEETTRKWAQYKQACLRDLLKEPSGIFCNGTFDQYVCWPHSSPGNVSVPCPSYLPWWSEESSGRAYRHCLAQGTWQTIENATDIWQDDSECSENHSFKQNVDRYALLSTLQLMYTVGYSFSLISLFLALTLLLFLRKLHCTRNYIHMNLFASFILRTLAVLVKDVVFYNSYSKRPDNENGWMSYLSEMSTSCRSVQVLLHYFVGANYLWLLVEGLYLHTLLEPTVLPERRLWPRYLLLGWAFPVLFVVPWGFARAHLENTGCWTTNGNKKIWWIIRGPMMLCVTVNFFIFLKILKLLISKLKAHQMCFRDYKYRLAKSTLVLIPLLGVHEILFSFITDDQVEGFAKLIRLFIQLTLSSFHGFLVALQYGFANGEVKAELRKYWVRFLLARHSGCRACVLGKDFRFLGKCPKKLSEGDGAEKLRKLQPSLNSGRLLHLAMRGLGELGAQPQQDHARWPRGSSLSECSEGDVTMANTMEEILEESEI

B1: Compound no. 31 (peptide)
peptide: H[Aib]DGTFISDYK([γGlu-Decanoyl])TILDKLAARDFIEWLIATKITK-OH
modifications: N-terminus assumed
SMILES: CCCCCCCCCC(=O)N[C@@H](CCC(=O)NCCCC[C@H](NC(=O)[C@H](Cc1ccc(O)cc1)NC(=O)[C@H](CC(=O)O)NC(=O)[C@H](CO)NC(=O)[C@@H](NC(=O)[C@H](Cc1ccccc1)NC(=O)[C@@H](NC(=O)CNC(=O)[C@H](CC(=O)O)NC(=O)C(C)(C)NC(=O)[C@@H](N)Cc1c[nH]cn1)[C@@H](C)O)[C@@H](C)CC)C(=O)N[C@H](C(=O)N[C@H](C(=O)N[C@@H](CC(C)C)C(=O)N[C@@H](CC(=O)O)C(=O)N[C@@H](CCCCN)C(=O)N[C@@H](CC(C)C)C(=O)N[C@@H](C)C(=O)N[C@@H](C)C(=O)N[C@@H](CCCNC(=N)N)C(=O)N[C@@H](CC(=O)O)C(=O)N[C@@H](Cc1ccccc1)C(=O)N[C@H](C(=O)N[C@@H](CCC(=O)O)C(=O)N[C@@H](Cc1c[nH]c2ccccc12)C(=O)N[C@@H](CC(C)C)C(=O)N[C@H](C(=O)N[C@@H](C)C(=O)N[C@H](C(=O)N[C@@H](CCCCN)C(=O)N[C@H](C(=O)N[C@H](C(=O)N[C@@H](CCCCN)C(=O)O)[C@@H](C)O)[C@@H](C)CC)[C@@H](C)O)[C@@H](C)CC)[C@@H](C)CC)[C@@H](C)CC)[C@@H](C)O)C(=O)O
B2: Compound no. 44 (peptide)
peptide: Decanoyl-H[Aib]DGTFISDYST[Aib]LDNLAARDFINWLIQTKITK-OH
SMILES: CCCCCCCCCC(=O)N[C@@H](Cc1c[nH]cn1)C(=O)NC(C)(C)C(=O)N[C@@H](CC(=O)O)C(=O)NCC(=O)N[C@H](C(=O)N[C@@H](Cc1ccccc1)C(=O)N[C@H](C(=O)N[C@@H](CO)C(=O)N[C@@H](CC(=O)O)C(=O)N[C@@H](Cc1ccc(O)cc1)C(=O)N[C@@H](CO)C(=O)N[C@H](C(=O)NC(C)(C)C(=O)N[C@@H](CC(C)C)C(=O)N[C@@H](CC(=O)O)C(=O)N[C@@H](CC(N)=O)C(=O)N[C@@H](CC(C)C)C(=O)N[C@@H](C)C(=O)N[C@@H](C)C(=O)N[C@@H](CCCNC(=N)N)C(=O)N[C@@H](CC(=O)O)C(=O)N[C@@H](Cc1ccccc1)C(=O)N[C@H](C(=O)N[C@@H](CC(N)=O)C(=O)N[C@@H](Cc1c[nH]c2ccccc12)C(=O)N[C@@H](CC(C)C)C(=O)N[C@H](C(=O)N[C@@H](CCC(N)=O)C(=O)N[C@H](C(=O)N[C@@H](CCCCN)C(=O)N[C@H](C(=O)N[C@H](C(=O)N[C@@H](CCCCN)C(=O)O)[C@@H](C)O)[C@@H](C)CC)[C@@H](C)O)[C@@H](C)CC)[C@@H](C)CC)[C@@H](C)O)[C@@H](C)CC)[C@@H](C)O

What follows are binders tested against T1, human GIPR (glucose-dependent …) (assay: cell-based or functional assay).

cAMP assay: EC50 (nM) GIPR [nM] | cAMP assay: Efficacy GIPR [%] | Binder
0.891 | 101 | Palmitoyl-HADGTFISDYSTILDNLAARDFIEWLIQTKITKNDWKHNITQ [Compound no. 50]
0.316 | 90 | Palmitoyl-HADGTFISDYST[Aib]LDNLAARDFINWLIQTKITKNDWKHNITQ [Compound no. 53]
0.398 | 104 | Palmitoyl-HADGTFISDYSTILDNLAARDFINWLIETKITKNDWKHNITQ [Compound no. 51]
2.82 | 105 | Palmitoyl-HADGTFISDYSTILDNLAARDFINWLIQTKITKAEWKHAITQ [Compound no. 49]
12.6 | 97 | HADGTFISDYSTILDKLAARDFINWLIQTK(C16 fatty acid)ITK [Compound no. 57]
1.41 | 74 | HADGTFISDYSTILDKLAARDFINWLIQTKITK(C16 fatty acid) [Compound no. 58]
2.82 | 112 | Palmitoyl-HADGTFISDYSTILDELAARDFINWLIQTKITKNDWKHNITQ [Compound no. 48]
1.17 | 86 | H[Aib]DGTFISDYK([γGlu-Decanoyl])T[Aib]LDNLAARDFINWLIQTKITGNDWKHNITQ-OH [Compound no. 54, listing 1 of 2 here]
0.251 | 96 | Palmitoyl-HADGTFISDYSTILDNLAARDFINWLIATKITKNDWKHNITQ [Compound no. 52]

What follows are binders tested against T2, human GLP-2R (glucagon-like peptide-2 …) (assay: cell-based or functional assay).

cAMP assay: EC50 (nM) GLP-2R [nM] | cAMP assay: Efficacy GLP-2R [%] | cAMP assay: logEC50 GLP-2R | Binder
10 | 70 | 8 | Palmitoyl-HADGTFISDYSTILDNLAARDFIEWLIQTKITKNDWKHNITQ [Compound no. 50]
4 | 79 | 8.2 | Palmitoyl-HADGTFISDYST[Aib]LDNLAARDFINWLIQTKITKNDWKHNITQ [Compound no. 53]
12.6 | 66 | 7.9 | Palmitoyl-HADGTFISDYSTILDNLAARDFINWLIETKITKNDWKHNITQ [Compound no. 51]
35.5 | 92 | 7.5 | Palmitoyl-HADGTFISDYSTILDNLAARDFINWLIQTKITKAEWKHAITQ [Compound no. 49]
25.1 | 69 | 7.6 | Palmitoyl-HADGTFISDYSTILDELAARDFINWLIQTKITKNDWKHNITQ [Compound no. 48]
7.9 | 68 | 8.1 | Palmitoyl-HADGTFISDYSTILDNLAARDFINWLIATKITKNDWKHNITQ [Compound no. 52]

These binders were tested against T3, human GLP-1R (GLP-1 receptor) (human, UniProt P43220 24-463) (assay: cell-based or functional assay).

cAMP assay: EC50 (nM) GLP-1R [nM] | cAMP assay: Efficacy GLP-1R [%] | cAMP assay: logEC50 GLP-1R | Binder
39.8 | 6 | 7.4 | B1
 | 19 |  | B2
100 | 73 | 7 | HADGTFISDYSTILDKLAARDFINWLIQTK(C16 fatty acid)ITK [Compound no. 57]
39.8 | 8 | 7.4 | H[Aib]DGTFISDYK([γGlu-Decanoyl])T[Aib]LDNLAARDFINWLIQTKITGNDWKHNITQ-OH [Compound no. 54, listing 1 of 2 here]

Target: T1, human GIPR (glucose-dependent …)
Assay: cell-based or functional assay
Remark: another data set of the same source

cAMP assay: Efficacy GIPR [%] | Binder
99 | HXDGTFISDYSTILDNLAARDFINWLIQTKITK (Aib at 2; K(C10) at 33 (C-terminal residue); C-terminus -OH) [Compound no. 63]
107 | HXDGTFISDYSTXLDNLAARDFINWLIQTKITK (Aib at 2 and 13; K(C10) at 33 (C-terminal residue); C-terminal amide (-NH2)) [Compound no. 65]
86 | HADGTFISDYST[Aib]LDK([AEEA-AEEA-γGlu-C18 diacid])LAARDFINWLIQTKGKK [Compound no. 62]
97 | HGEGSFGSDMSIALDKLAARDFVNWLLQTKITD (also: C14 fatty acid at C-terminus, attachment not given here) [Compound no. 66]
93 | HADGTFISDYSTILDNLAARDFINWLIQTKGKK([AEEA-AEEA-γGlu-C18 diacid]) (also: K33: γGlu-C18-diacid linker 2xAEEA-γGlu) [Compound no. 60]

Target: T2, human GLP-2R (glucagon-like peptide-2 …)
Assay: cell-based or functional assay
Remark: another data set of the same source

cAMP assay: Efficacy GLP-2R [%] | Binder
75 | HADGTFISDYSTILDK([AEEA-AEEA-γGlu-C18 diacid])LAARDFINWLIQTKGKK [Compound no. 64]
105 | HXDGTFISDYSTILDNLAARDFINWLIQTKITK (Aib at 2; K(C10) at 33 (C-terminal residue); C-terminus -OH) [Compound no. 63]
77 | HXDGTFISDYSTXLDNLAARDFINWLIQTKITK (Aib at 2 and 13; K(C10) at 33 (C-terminal residue); C-terminal amide (-NH2)) [Compound no. 65]
83 | HADGTFISDYST[Aib]LDK([AEEA-AEEA-γGlu-C18 diacid])LAARDFINWLIQTKGKK [Compound no. 62]
90 | HADGTFISDYSTILDNLAARDFINWLIQTKGKK([AEEA-AEEA-γGlu-C18 diacid]) (also: K33: γGlu-C18-diacid linker 2xAEEA-γGlu) [Compound no. 60]

Target: T3, human GLP-1R (GLP-1 receptor)
Assay: cell-based or functional assay
Remark: another data set of the same source

cAMP assay: Efficacy GLP-1R [%] | Binder
85 | HADGTFISDYSTILDK([AEEA-AEEA-γGlu-C18 diacid])LAARDFINWLIQTKGKK [Compound no. 64]
84 | HXDGTFISDYSTILDNLAARDFINWLIQTKITK (Aib at 2; K(C10) at 33 (C-terminal residue); C-terminus -OH) [Compound no. 63]
76 | HXDGTFISDYSTXLDNLAARDFINWLIQTKITK (Aib at 2 and 13; K(C10) at 33 (C-terminal residue); C-terminal amide (-NH2)) [Compound no. 65]
85 | HADGTFISDYST[Aib]LDK([AEEA-AEEA-γGlu-C18 diacid])LAARDFINWLIQTKGKK [Compound no. 62]
105 | HADGTFISDYSTILDNLAARDFINWLIQTKGKK([AEEA-AEEA-γGlu-C18 diacid]) (also: K33: γGlu-C18-diacid linker 2xAEEA-γGlu) [Compound no. 60]

The binders below were run against macaque GIPR (macaque) (assay: cell-based or functional assay).

Efficacy (%) | pEC50 | Binder
92.5 | 9 | HXDGTFISDYKTILDNLAARDFINWLIQTKITK (Aib at position 2; K(γGlu-C16) at position 11; C-terminal -OH) [Compound no. 11]
71.8 | 7.7 | H[Aib]DGTFISDYK([γGlu-Decanoyl])T[Aib]LDNLAARDFINWLIQTKITGNDWKHNITQ-OH [Compound no. 54, listing 2 of 2 here]
